pKd: −log10 of the molar value.
Molecular target: Recombinant human His-tagged CEACAM5 extracellular domain (human) (UniProt P06731)
Experiment: BLI

Chain of UniProt P06731 (P06731 35-702): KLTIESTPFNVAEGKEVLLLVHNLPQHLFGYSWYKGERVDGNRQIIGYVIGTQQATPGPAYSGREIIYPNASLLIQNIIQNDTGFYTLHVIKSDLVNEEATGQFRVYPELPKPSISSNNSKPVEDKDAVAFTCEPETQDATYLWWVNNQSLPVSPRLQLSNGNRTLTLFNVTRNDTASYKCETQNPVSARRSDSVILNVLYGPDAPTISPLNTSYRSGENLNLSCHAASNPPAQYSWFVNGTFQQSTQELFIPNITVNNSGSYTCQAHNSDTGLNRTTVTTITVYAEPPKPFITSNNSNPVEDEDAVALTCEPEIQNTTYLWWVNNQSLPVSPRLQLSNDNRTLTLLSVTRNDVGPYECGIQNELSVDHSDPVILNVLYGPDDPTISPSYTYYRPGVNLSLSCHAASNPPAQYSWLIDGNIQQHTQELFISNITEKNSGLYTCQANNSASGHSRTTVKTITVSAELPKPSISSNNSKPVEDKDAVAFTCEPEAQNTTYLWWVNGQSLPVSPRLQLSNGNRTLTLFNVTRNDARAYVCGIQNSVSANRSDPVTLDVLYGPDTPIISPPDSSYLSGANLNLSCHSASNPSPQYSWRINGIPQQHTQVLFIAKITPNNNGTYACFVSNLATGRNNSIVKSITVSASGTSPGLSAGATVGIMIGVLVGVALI

Substance | pKd
common light chain IgG variant 4F02 (from UniProt P01624) | 8.60
common light chain IgG variant 4G07 (from UniProt P01624) | 9.22

Source: publication PMC5759264
